From patent publication US20230151091A1 (NEW YORK UNIVERSITY, published 2023)
Changes are numbered by the printed parent chain.

T1: mFz: Fz domain and C-terminal flanking sequence of mouse MuSK (D307 to T494) with C-terminal Avi- and … (mouse, UniProt Q61006 307-494, limits assumed, biotinylated in vitro using the BirA enzyme)
T1 construct: also called mouse Fz; not shown: Avi- and His6-tags
T1 sequence (looked up): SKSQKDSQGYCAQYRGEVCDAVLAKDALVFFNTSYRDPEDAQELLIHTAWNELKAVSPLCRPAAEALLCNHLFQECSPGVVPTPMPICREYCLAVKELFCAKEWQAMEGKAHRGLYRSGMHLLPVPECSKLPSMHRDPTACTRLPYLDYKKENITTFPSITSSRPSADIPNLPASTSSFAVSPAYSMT

T2: hECD: full-length extracellular region of human MuSK (E22 to T495) with C-terminal Avi- and His6-tags (human, UniProt O15146 22-495, biotinylated in vitro using the BirA enzyme)
T2 construct: also called human ECD; not shown: Avi- and His6-tags
T2 sequence: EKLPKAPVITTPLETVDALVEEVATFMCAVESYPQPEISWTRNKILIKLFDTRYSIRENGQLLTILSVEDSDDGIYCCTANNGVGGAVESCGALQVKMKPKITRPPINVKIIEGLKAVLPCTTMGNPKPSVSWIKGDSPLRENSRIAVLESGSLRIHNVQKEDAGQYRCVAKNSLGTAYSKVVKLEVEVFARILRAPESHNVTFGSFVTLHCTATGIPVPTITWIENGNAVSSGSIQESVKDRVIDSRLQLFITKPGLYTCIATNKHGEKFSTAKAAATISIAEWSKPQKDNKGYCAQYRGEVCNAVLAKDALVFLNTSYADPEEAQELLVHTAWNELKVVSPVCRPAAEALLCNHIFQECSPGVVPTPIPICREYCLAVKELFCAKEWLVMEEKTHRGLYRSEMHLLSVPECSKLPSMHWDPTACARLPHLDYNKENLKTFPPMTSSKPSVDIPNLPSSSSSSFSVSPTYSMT

T3: mECD: full-length extracellular region of mouse MuSK (E22 to T494) with C-terminal Avi- and His6-tags (mouse, UniProt Q61006 22-494, biotinylated in vitro using the BirA enzyme)
T3 construct: range 22-494; also called mouse ECD; not shown: Avi- and His6-tags
T3 sequence (looked up): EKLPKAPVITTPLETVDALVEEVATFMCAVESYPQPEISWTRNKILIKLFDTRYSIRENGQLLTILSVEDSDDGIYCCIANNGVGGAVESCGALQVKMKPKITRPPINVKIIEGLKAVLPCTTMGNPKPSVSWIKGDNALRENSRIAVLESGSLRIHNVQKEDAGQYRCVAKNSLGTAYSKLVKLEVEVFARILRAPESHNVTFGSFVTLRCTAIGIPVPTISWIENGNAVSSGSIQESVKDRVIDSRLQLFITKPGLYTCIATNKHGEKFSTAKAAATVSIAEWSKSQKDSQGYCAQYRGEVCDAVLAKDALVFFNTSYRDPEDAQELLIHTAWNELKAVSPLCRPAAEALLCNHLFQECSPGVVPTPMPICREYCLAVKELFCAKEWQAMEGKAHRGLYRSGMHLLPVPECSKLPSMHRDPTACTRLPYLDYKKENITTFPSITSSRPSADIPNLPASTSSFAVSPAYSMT

T4: hFz: Fz domain and C-terminal flanking sequence of human MuSK (K314-T495) with C-terminal Avi- and His6-tags (human, UniProt O15146 314-495, biotinylated in vitro using the BirA enzyme)
T4 construct: also called human Fz; not shown: Avi- and His6-tags
T4 sequence: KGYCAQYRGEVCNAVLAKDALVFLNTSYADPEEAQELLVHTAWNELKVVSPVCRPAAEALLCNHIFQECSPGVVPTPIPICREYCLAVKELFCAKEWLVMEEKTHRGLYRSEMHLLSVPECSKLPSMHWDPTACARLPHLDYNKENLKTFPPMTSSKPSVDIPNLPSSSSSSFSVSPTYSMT

T5: mouse MuSK, endogenous (C2C12 myotubes; neuromuscular synapses of mice) (mouse, UniProt Q61006 22-868)
T5 sequence (looked up): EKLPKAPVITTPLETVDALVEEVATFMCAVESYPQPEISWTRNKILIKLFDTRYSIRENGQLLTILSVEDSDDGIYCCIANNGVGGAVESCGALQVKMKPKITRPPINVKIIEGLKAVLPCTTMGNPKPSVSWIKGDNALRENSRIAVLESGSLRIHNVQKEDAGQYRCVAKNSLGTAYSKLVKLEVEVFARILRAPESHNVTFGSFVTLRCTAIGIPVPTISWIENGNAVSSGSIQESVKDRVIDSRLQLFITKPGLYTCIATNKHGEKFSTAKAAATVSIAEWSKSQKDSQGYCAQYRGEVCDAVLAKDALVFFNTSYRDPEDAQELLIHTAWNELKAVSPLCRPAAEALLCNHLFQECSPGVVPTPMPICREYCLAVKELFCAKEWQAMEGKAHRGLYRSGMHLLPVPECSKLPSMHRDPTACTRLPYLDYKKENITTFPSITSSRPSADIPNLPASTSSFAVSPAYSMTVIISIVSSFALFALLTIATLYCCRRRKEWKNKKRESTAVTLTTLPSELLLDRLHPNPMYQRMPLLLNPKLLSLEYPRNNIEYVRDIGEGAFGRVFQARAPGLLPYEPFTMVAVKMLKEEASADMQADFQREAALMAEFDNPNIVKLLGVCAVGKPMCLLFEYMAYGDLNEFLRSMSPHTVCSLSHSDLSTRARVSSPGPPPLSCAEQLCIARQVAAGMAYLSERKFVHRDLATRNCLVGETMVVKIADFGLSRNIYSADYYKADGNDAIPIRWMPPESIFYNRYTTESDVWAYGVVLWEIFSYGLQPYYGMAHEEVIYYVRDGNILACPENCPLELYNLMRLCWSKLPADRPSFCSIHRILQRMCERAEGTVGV

T6: mouse MuSK (mouse, UniProt Q61006 22-494, limits assumed)
T6 construct: Coated on ELISA plates or on the Biacore chip; also called full length mouse MuSK; mouse MuSK (in house produced in HEK293 cells)
T6 sequence (looked up): T3 sequence (looked up)

T7: rat MuSK (rat, UniProt Q62838 22-494, limits assumed)
T7 construct: Coated on Biacore chip (200RU) or ELISA plate
T7 sequence (looked up): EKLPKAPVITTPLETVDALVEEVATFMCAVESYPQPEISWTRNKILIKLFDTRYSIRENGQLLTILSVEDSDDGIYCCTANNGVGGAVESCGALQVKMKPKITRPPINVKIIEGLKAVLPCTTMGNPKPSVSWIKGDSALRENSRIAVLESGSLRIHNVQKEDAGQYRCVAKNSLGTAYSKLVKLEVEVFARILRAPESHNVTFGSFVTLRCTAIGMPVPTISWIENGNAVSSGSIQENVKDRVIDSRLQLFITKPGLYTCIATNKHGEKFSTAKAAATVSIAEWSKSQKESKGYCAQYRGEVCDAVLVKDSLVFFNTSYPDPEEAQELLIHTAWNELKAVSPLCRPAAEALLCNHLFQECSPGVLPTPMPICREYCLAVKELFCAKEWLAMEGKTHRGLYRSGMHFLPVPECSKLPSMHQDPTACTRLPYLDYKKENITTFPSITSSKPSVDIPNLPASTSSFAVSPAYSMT

B1: hIgG1-X17 (antibody, V domains shown)
VH: EVQLVESGGGLVQPGGSLRLSCAASGFTISYSSIHWVRQAPGKGLEWVASIYSSSGSTYYADSVKGRFTISADTSKNTAYLQMNSLRAEDTAVYYCARGDHGYYVFGYLGMDYWGQGTLVTVSS
VL: DIQMTQSPSSLSASVGDRVTITCRASQSVSSAVAWYQQKPGKAPKLLIYSASSLYSGVPSRFSGSRSGTDFTLTISSLQPEDFATYYCQQSYKPGALITFGQGTKVEIK
notes: human IgG1 Fc containing LALA mutations; also called hIgG-X17; X17 in human IgG1 format
B2: 3B2g1m4 (antibody, human IgG1, V domains shown)
VH: EVQLLESGGGLVQPGGSLRLSCAASGFTFSDYGMSWVRQAPGKGLEWVSAIPWQGGSTYYKESVKGRFTISRDNSKNTLYLQMNSLRAEDTAVYYCAKRSGRIAFGALDAWGQGTLVTVSS
VL: QTVVTQEPSFSVSPGGTVTLTCGLSSGSVTSSNYPDWYQQTPGQAPRTLIYSTDSRHSGVPDRFSGSILGNKAALTITGAQADDESDYYCGLYMYSGSKNYVFGGGTKLTVL
notes: human IgG1-LALA backbone; produced in HEK293 cells
B3: 3B2g2m4 (antibody, human IgG1, V domains shown)
VH: B2 VH
VL: B2 VL with M94S
notes: as for B2
B4: 3B2g2m2 (antibody, human IgG1, V domains shown)
VH: B2 VH with W53G, Q54S
VL: B2 VL with M94S
notes: as for B2

Key:
[1] = molecular target: T1, mFz: Fz domain and C-terminal flanking …; experiment: bead-binding assay, IgG format: biotinylated antigen on streptavidin beads, flow cytometry, 1:1 fit; average ± s.d., n=3
[2] = molecular target: T2, hECD: full-length extracellular region …; experiment: as above
[3] = molecular target: T3, mECD: full-length extracellular region …; experiment: as above
[4] = molecular target: T4, hFz: Fz domain and C-terminal flanking …; experiment: as above
[5] = molecular target: T5, mouse MuSK, endogenous (C2C12 myotubes; …); experiment: cell-based or functional assay
[6] = molecular target: T8, cynomolgus monkey MuSK (cynomolgus monkey, UniProt A0A2K5USF6 24-487); experiment: Biacore, MuSK on chip, association pH 7.4, dissociation pH 5.5
Experimental: (§1) For affinity determination, a CMS chip was coated with cynomolgus monkey, rat and mouse MuSK (200RU) and 66.7 nM of antibody was applied and kinetic parameters calculated (Table 8). The following conclusions could be drawn: (1) 3B2g1m3 and 3B2g2m3 (m3 variants) show significant drop in affinity for MuSK for all species tested; (2) 3B2g1m2 and 3B2g2m2 (m2 variants) show some drop in affinity for MuSK; (3) 3B2g1m1, 3B2g2m1, 3B2g1m4, 3B2g2m4 (ml and m4 variants) show no drop in affinity for MuSK for all species tested; and (4) for all clones there is no difference between g1 and g2 variants (VL methionine versus serine in CDR3).
(§2) In order to study pH dependent binding of our antibodies to MuSK, the same Biacore was used as above, but now dissociation was done at pH 5.5 instead of pH 7.4. […] The following conclusions could be drawn for the different variants: (1) 3B2g1m3 and 3B2g2m3 (m3 variants) show significant drop in affinity for MuSK for all species tested; (2) 3B2g1m2 and 3B2g2m2 (m2 variants) show some drop in affinity for MuSK; (3) 3B2g1m1, 3B2g2m1, 3B2g1m4, 3B2g2m4 (m1 and m4 variants) show no drop in affinity for MuSK for all species tested; and (4) for all clones there is no difference between g1 and g2 variants (VL methionine versus serine in CDR3).

[7] = molecular target: T6, mouse MuSK; experiment: as above
Experimental: as §1, §2

[8] = molecular target: T7, rat MuSK; experiment: as above
Experimental: as §1, §2

[9] = molecular target: T8, cynomolgus monkey MuSK; experiment: Biacore, MuSK on chip (200RU), 66.7 nM mAb, dissociation pH 7.4
Experimental: as §1

[10] = molecular target: T6, mouse MuSK; experiment: as above
Experimental: as §1

[11] = molecular target: T7, rat MuSK; experiment: as above
Experimental: as §1

T8 sequence (A0A2K5USF6 entry or part of it): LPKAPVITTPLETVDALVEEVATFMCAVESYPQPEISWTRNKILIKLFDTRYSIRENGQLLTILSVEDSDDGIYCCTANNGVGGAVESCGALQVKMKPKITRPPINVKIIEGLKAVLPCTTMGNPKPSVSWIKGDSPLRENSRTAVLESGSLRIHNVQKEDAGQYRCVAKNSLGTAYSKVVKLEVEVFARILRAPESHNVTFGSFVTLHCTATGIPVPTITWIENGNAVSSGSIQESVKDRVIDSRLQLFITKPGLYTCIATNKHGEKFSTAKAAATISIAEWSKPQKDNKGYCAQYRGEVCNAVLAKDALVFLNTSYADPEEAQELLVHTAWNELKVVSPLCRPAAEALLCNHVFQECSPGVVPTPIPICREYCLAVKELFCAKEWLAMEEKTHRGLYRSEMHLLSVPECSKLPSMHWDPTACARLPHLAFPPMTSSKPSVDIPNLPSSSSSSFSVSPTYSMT

Row | Binder | MuSK phosphorylation in C2C12 myotubes [5] | R0 [6] [RU] | koff [6] [s⁻¹] | kon [6] [M⁻¹ s⁻¹] | R0 [7] [RU] | koff [7] [s⁻¹] | kon [7] [M⁻¹ s⁻¹] | R0 [8] [RU] | koff [8] [s⁻¹] | kon [8] [M⁻¹ s⁻¹] | R0 [9] [RU] | koff [9] [s⁻¹] | kon [9] [M⁻¹ s⁻¹] | R0 [10] [RU] | koff [10] [s⁻¹] | kon [10] [M⁻¹ s⁻¹] | R0 [11] [RU] | koff [11] [s⁻¹] | kon [11] [M⁻¹ s⁻¹] | other results
1 | B1 |  |  |  |  |  |  |  |  |  |  |  |  |  |  |  |  |  |  |  | Kd [1]: 0.68 nM; Kd [2]: 0.86 nM; Kd [3]: 1.04 nM; Kd [4]: 0.56 nM
2 | B2 | ~58 % of 1 nM agrin | 146 | 0.00261 | 680000 | 191 | 0.00304 | 980000 | 171 | 0.00558 | 950000 | 140 | 0.00086 | 730000 | 192 | 0.00065 | 1.08e+06 | 155 | 0.00192 | 1.12e+06 | 
3 | B3 | ~58 % of 1 nM agrin | 148 | 0.00256 | 750000 | 191 | 0.003 | 1.04e+06 | 172 | 0.00538 | 1.02e+06 | 142 | 0.00088 | 790000 | 193 | 0.00064 | 1.15e+06 | 158 | 0.00196 | 1.19e+06 | 
4 | B4 | ~80 % of 1 nM agrin | 146 | 0.00326 | 860000 | 153 | 0.0882 | 210000 | 145 | 0.0973 | 40000 | 136 | 0.00179 | 890000 | 158 | 0.00231 | 1.71e+06 | 130 | 0.00281 | 1.56e+06 | 
